Experimental data published in publication PMC9891163 (Drug Delivery, 2023).

Test: Aqueous dispersibility of the peptide-lipid conjugate
Assay type: physicochemical

## (Dipalmitoyl)lysine-KSS-(SG)5-ApoEdp [ApoEdp-SG-lipid]
  Aqueous dispersibility: excellent aqueous dispersibility
